B1: ZBED1 (parent)
chain: EQVFSLGDGVSGGFFGIRDSSFL
B2: CDKL4 (parent)
chain: AVKKFVESEDDPVVKKIALREIRM

Variants of: B1
Experiment: protein stability index of a GFP-peptide fusion (GPS, HEK-293T) (PSI 1-6); higher = more stable
Conditions: c terminus: native
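Further: lentivirally expressed fusions sorted by FACS into six bins by GFP to DsRed ratio, PSI derived from sequencing read proportions per bin multiplied by bin number.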

Variant	protein stability index
EQVFSLGDGVSGGFFGIRDSSKL [F22K]	2.39
EQVFSLGDGVSGGFFGIRDSSIL [F22I]	3.04
EQVFSLGDGVSGGFFGIRDSSCL [F22C]	3.39
EQVFSLGDGVSGGFFGIRDSSVL [F22V]	3.35
EQVFSLGDGVSGGFFGIRDSSLL [F22L]	3.41
EQVFSLGDGVSGGFFGIRDSSEL [F22E]	4.08
EQVFSLGDGVSGGFFGIRDSSHL [F22H]	4.5
EQVFSLGDGVSGGFFGIRDSSQL [F22Q]	4.24
EQVFSLGDGVSGGFFGIRDSSNL [F22N]	4.22
EQVFSLGDGVSGGFFGIRDSSDL [F22D]	4.06
EQVFSLGDGVSGGFFGIRDSSPL [F22P]	3.43
EQVFSLGDGVSGGFFGIRDSSML [F22M]	3.49
EQVFSLGDGVSGGFFGIRDSSGL [F22G]	4.14
EQVFSLGDGVSGGFFGIRDSSAL [F22A]	4.15
EQVFSLGDGVSGGFFGIRDSSTL [F22T]	4.07
EQVFSLGDGVSGGFFGIRDSSRL [F22R]	3.61
EQVFSLGDGVSGGFFGIRDSSWL [F22W]	3.73
EQVFSLGDGVSGGFFGIRDSSSL [F22S]	3.79
EQVFSLGDGVSGGFFGIRDSSYL [F22Y]	3.33
EQVFSLGDGVSGGFFGIRDNSFL [S20N]	3.7
EQVFSLGDGVSGGFFGIRDFSFL [S20F]	2.39
EQVFSLGDGVSGGFFGIRDRSFL [S20R]	3.21
EQVFSLGDGVSGGFFGIRDGSFL [S20G]	3.22
EQVFSLGDGVSGGFFGIRDPSFL [S20P]	3.73
EQVFSLGDGVSGGFFGIRDQSFL [S20Q]	3.7
EQVFSLGDGVSGGFFGIRDTSFL [S20T]	3.22

Variant	protein stability index
EQVFSLGDGVSGGFFGIRDKSFL [S20K]	3.53
EQVFSLGDGVSGGFFGIRDHSFL [S20H]	2.76
EQVFSLGDGVSGGFFGIRDASFL [S20A]	3.1
EQVFSLGDGVSGGFFGIRDISFL [S20I]	2.42
EQVFSLGDGVSGGFFGIRDMSFL [S20M]	2.49
EQVFSLGDGVSGGFFGIRDWSFL [S20W]	2.35
EQVFSLGDGVSGGFFGIRDCSFL [S20C]	1.96
EQVFSLGDGVSGGFFGIRDVSFL [S20V]	2.63
EQVFSLGDGVSGGFFGIRDYSFL [S20Y]	2.96
EQVFSLGDGVSGGFFGIRDESFL [S20E]	3.91
EQVFSLGDGVSGGFFGIRDDSFL [S20D]	3.71
EQVFSLGDGVSGGFFGIRDLSFL [S20L]	2.5
EQVFSLGDGVSGGFFGIGDSSFL [R18G]	3.42
EQVFSLGDGVSGGFFGIQDSSFL [R18Q]	3.38
EQVFSLGDGVSGGFFGICDSSFL [R18C]	1.98
EQVFSLGDGVSGGFFGIDDSSFL [R18D]	3.98
EQVFSLGDGVSGGFFGINDSSFL [R18N]	3.9
EQVFSLGDGVSGGFFGIVDSSFL [R18V]	2.14
EQVFSLGDGVSGGFFGIKDSSFL [R18K]	3.96
EQVFSLGDGVSGGFFGITDSSFL [R18T]	3.32
EQVFSLGDGVSGGFFGIMDSSFL [R18M]	2.71
EQVFSLGDGVSGGFFGIIDSSFL [R18I]	2.26
EQVFSLGDGVSGGFFGIYDSSFL [R18Y]	2.49
EQVFSLGDGVSGGFFGIPDSSFL [R18P]	3.28
EQVFSLGDGVSGGFFGIWDSSFL [R18W]	2.21
EQVFSLGDGVSGGFFGIHDSSFL [R18H]	2.62

Variant	protein stability index
EQVFSLGDGVSGGFFGIEDSSFL [R18E]	3.93
EQVFSLGDGVSGGFFGIADSSFL [R18A]	2.92
EQVFSLGDGVSGGFFGISDSSFL [R18S]	3.65
EQVFSLGDGVSGGFFGILDSSFL [R18L]	2.78
EQVFSLGDGVSGGFFGIFDSSFL [R18F]	2.07
EQVFSLGDGVSGGFFGIRYSSFL [D19Y]	2.57
EQVFSLGDGVSGGFFGIRRSSFL [D19R]	2.78
EQVFSLGDGVSGGFFGIRISSFL [D19I]	1.82
EQVFSLGDGVSGGFFGIRNSSFL [D19N]	2.75
EQVFSLGDGVSGGFFGIRVSSFL [D19V]	2.65
EQVFSLGDGVSGGFFGIRESSFL [D19E]	2.92
EQVFSLGDGVSGGFFGIRQSSFL [D19Q]	2.15
EQVFSLGDGVSGGFFGIRSSSFL [D19S]	1.68
EQVFSLGDGVSGGFFGIRKSSFL [D19K]	3.4
EQVFSLGDGVSGGFFGIRASSFL [D19A]	1.3
EQVFSLGDGVSGGFFGIRCSSFL [D19C]	2.26
EQVFSLGDGVSGGFFGIRFSSFL [D19F]	3.4
EQVFSLGDGVSGGFFGIRLSSFL [D19L]	2.1
EQVFSLGDGVSGGFFGIRMSSFL [D19M]	1.77
EQVFSLGDGVSGGFFGIRHSSFL [D19H]	2.19
EQVFSLGDGVSGGFFGIRGSSFL [D19G]	2.87
EQVFSLGDGVSGGFFGIRPSSFL [D19P]	2.15
EQVFSLGDGVSGGFFGIRTSSFL [D19T]	1.85
EQVFSLGDGVSGGFFGVRDSSFL [I17V]	3.87
EQVFSLGDGVSGGFFGDRDSSFL [I17D]	4.55
EQVFSLGDGVSGGFFGERDSSFL [I17E]	4.71

Variant	protein stability index
EQVFSLGDGVSGGFFGQRDSSFL [I17Q]	4.31
EQVFSLGDGVSGGFFGLRDSSFL [I17L]	3.68
EQVFSLGDGVSGGFFGWRDSSFL [I17W]	3.52
EQVFSLGDGVSGGFFGTRDSSFL [I17T]	4.3
EQVFSLGDGVSGGFFGPRDSSFL [I17P]	4
EQVFSLGDGVSGGFFGNRDSSFL [I17N]	4.02
EQVFSLGDGVSGGFFGARDSSFL [I17A]	4.37
EQVFSLGDGVSGGFFGHRDSSFL [I17H]	4.03
EQVFSLGDGVSGGFFGCRDSSFL [I17C]	3.76
EQVFSLGDGVSGGFFGFRDSSFL [I17F]	3.42
EQVFSLGDGVSGGFFGSRDSSFL [I17S]	4.2
EQVFSLGDGVSGGFFGGRDSSFL [I17G]	4.17
EQVFSLGDGVSGGFFGMRDSSFL [I17M]	3.75
EQVFSLGDGVSGGFFGRRDSSFL [I17R]	4.2
EQVFSLGDGVSGGFFGKRDSSFL [I17K]	3.8
EQVFSLGDGVSGGFFGYRDSSFL [I17Y]	3.28
EQVFSLGDGVSGGFFGIRDSSFV [L23V]	3.19
EQVFSLGDGVSGGFFGIRDSSFP [L23P]	3.92
EQVFSLGDGVSGGFFGIRDSSFI [L23I]	2.99
EQVFSLGDGVSGGFFGIRDSSFN [L23N]	3.94
EQVFSLGDGVSGGFFGIRDSSFH [L23H]	3.9
EQVFSLGDGVSGGFFGIRDSSFA [L23A]	2.42
EQVFSLGDGVSGGFFGIRDSSFQ [L23Q]	3.98
EQVFSLGDGVSGGFFGIRDSSFT [L23T]	3.33
EQVFSLGDGVSGGFFGIRDSSFR [L23R]	3.35
EQVFSLGDGVSGGFFGIRDSSFW [L23W]	2.66

Variant	protein stability index
EQVFSLGDGVSGGFFGIRDSSFS [L23S]	3.25
EQVFSLGDGVSGGFFGIRDSSFC [L23C]	3.34
EQVFSLGDGVSGGFFGIRDSSFF [L23F]	2.63
EQVFSLGDGVSGGFFGIRDSSFG [L23G]	1.56
EQVFSLGDGVSGGFFGIRDSSFE [L23E]	4.54
EQVFSLGDGVSGGFFGIRDSSFM [L23M]	3.67
EQVFSLGDGVSGGFFGIRDSSFK [L23K]	4.35
EQVFSLGDGVSGGFFGIRDSSFY [L23Y]	2.61
EQVFSLGDGVSGGFFGIRDSSFD [L23D]	3.96
EQVFSLGDGVSGGFFDIRDSSFL [G16D]	3.77
EQVFSLGDGVSGGFFWIRDSSFL [G16W]	1.76
EQVFSLGDGVSGGFFRIRDSSFL [G16R]	3.14
EQVFSLGDGVSGGFFYIRDSSFL [G16Y]	2.29
EQVFSLGDGVSGGFFTIRDSSFL [G16T]	2.77
EQVFSLGDGVSGGFFMIRDSSFL [G16M]	2.17
EQVFSLGDGVSGGFFAIRDSSFL [G16A]	2.62
EQVFSLGDGVSGGFFCIRDSSFL [G16C]	1.84
EQVFSLGDGVSGGFFLIRDSSFL [G16L]	2.8
EQVFSLGDGVSGGFFEIRDSSFL [G16E]	2.83
EQVFSLGDGVSGGFFNIRDSSFL [G16N]	3.46
EQVFSLGDGVSGGFFPIRDSSFL [G16P]	2.85
EQVFSLGDGVSGGFFHIRDSSFL [G16H]	3.56
EQVFSLGDGVSGGFFQIRDSSFL [G16Q]	2.93
EQVFSLGDGVSGGFFFIRDSSFL [G16F]	1.91
EQVFSLGDGVSGGFFKIRDSSFL [G16K]	3.29
EQVFSLGDGVSGGFFVIRDSSFL [G16V]	1.85

Variant	protein stability index
EQVFSLGDGVSGGFFSIRDSSFL [G16S]	2.05
EQVFSLGDGVSGGFFIIRDSSFL [G16I]	1.57
EQVFSLGDGVSGGFFGIRDSPFL [S21P]	3.4
EQVFSLGDGVSGGFFGIRDSRFL [S21R]	3.61
EQVFSLGDGVSGGFFGIRDSCFL [S21C]	2.77
EQVFSLGDGVSGGFFGIRDSTFL [S21T]	3.33
EQVFSLGDGVSGGFFGIRDSAFL [S21A]	3
EQVFSLGDGVSGGFFGIRDSMFL [S21M]	2.54
EQVFSLGDGVSGGFFGIRDSFFL [S21F]	2.61
EQVFSLGDGVSGGFFGIRDSQFL [S21Q]	3.48
EQVFSLGDGVSGGFFGIRDSGFL [S21G]	3.84
EQVFSLGDGVSGGFFGIRDSNFL [S21N]	3.62
EQVFSLGDGVSGGFFGIRDSWFL [S21W]	2.59
EQVFSLGDGVSGGFFGIRDSKFL [S21K]	4.02
EQVFSLGDGVSGGFFGIRDSVFL [S21V]	1.74
EQVFSLGDGVSGGFFGIRDSLFL [S21L]	2.5
EQVFSLGDGVSGGFFGIRDSDFL [S21D]	4.08
EQVFSLGDGVSGGFFGIRDSHFL [S21H]	3.46
EQVFSLGDGVSGGFFGIRDSEFL [S21E]	3.67
EQVFSLGDGVSGGFFGIRDSYFL [S21Y]	2.66
EQVFSLGDGVSGGFFGIRDSIFL [S21I]	2.25

Variants of: B2
Experiment: as above
Conditions: c terminus: a fixed tail appended

Variant	protein stability index
AVKKFVESEDQPVVKKIALREIRM [D11Q]	2.81
AVKKFVESEDGPVVKKIALREIRM [D11G]	1.8
AVKKFVFSEDDPVVKKIALREIRM [E7F]	1.94
AVKKFVWSEDDPVVKKIALREIRM [E7W]	2.14
AVKKFVQSEDDPVVKKIALREIRM [E7Q]	2.54
AVKKFVISEDDPVVKKIALREIRM [E7I]	2
AVKKFVESEDDPMVKKIALREIRM [V13M]	2.73
AVKKFVESEDDPWVKKIALREIRM [V13W]	2.49
AVKKFVESEDDLVVKKIALREIRM [P12L]	2.55
AVKKFVESEDDRVVKKIALREIRM [P12R]	3.46
AVKKFVESEDDKVVKKIALREIRM [P12K]	3.23
AVKKFVESEDDIVVKKIALREIRM [P12I]	2.52
AVKKFVESEDDAVVKKIALREIRM [P12A]	3.04
AVKKFVESEDDPVVKKIALREIHM [R23H]	3.14
AVKKFVESEDDPVVKKIALREITM [R23T]	2.74
QVKKFVESEDDPVVKKIALREIRM [A1Q]	3.3
VVKKFVESEDDPVVKKIALREIRM [A1V]	2.43
AVKKFIESEDDPVVKKIALREIRM [V6I]	1.93
AVKKFVESEDDPVFKKIALREIRM [V14F]	2.01
AVKKFVESEDDPVQKKIALREIRM [V14Q]	3.71
AVKKFVESEDDPVVKKIALAEIRM [R20A]	3.21

Variant	protein stability index
AVKKFVESEDDPVVKKIPLREIRM [A18P]	3.57
AVKKFVESEDDPVVKKIQLREIRM [A18Q]	3.79
AVKKFVESEDDPVVKKIGLREIRM [A18G]	3.65
AVKKFVESEDDPVVNKIALREIRM [K15N]	2.88
AVKKFVESEDDPVVQKIALREIRM [K15Q]	2.86
AVKKFVESEDDPVVKKGALREIRM [I17G]	3.08
AVKKFVESEDDPVVKKCALREIRM [I17C]	3.32
AVKKFVESELDPVVKKIALREIRM [D10L]	1.68
AVKDFVESEDDPVVKKIALREIRM [K4D]	4.07
AVKPFVESEDDPVVKKIALREIRM [K4P]	4.01
AVKKFVESEDDPVVKKIAKREIRM [L19K]	3.67
AVKKFVESEDDPVVKKIAHREIRM [L19H]	3.76
AVKKSVESEDDPVVKKIALREIRM [F5S]	4.46
AVKKEVESEDDPVVKKIALREIRM [F5E]	3.94
AVKKNVESEDDPVVKKIALREIRM [F5N]	3.14
AVKKFVESEDDPVVKRIALREIRM [K16R]	3.18
AVKKFVESEDDPVVKCIALREIRM [K16C]	2.92
AVKKFVESEDDPVVKGIALREIRM [K16G]	3.57
AVKKFVESRDDPVVKKIALREIRM [E9R]	2.51
AVKKFVESEDDPVVKKIALREIRY [M24Y]	3.86
AVKKFVESEDDPVVKKIALREIRF [M24F]	2.6
